The target in the data set is T1, CasEnd-26 (synthetic construct).
T1 chain: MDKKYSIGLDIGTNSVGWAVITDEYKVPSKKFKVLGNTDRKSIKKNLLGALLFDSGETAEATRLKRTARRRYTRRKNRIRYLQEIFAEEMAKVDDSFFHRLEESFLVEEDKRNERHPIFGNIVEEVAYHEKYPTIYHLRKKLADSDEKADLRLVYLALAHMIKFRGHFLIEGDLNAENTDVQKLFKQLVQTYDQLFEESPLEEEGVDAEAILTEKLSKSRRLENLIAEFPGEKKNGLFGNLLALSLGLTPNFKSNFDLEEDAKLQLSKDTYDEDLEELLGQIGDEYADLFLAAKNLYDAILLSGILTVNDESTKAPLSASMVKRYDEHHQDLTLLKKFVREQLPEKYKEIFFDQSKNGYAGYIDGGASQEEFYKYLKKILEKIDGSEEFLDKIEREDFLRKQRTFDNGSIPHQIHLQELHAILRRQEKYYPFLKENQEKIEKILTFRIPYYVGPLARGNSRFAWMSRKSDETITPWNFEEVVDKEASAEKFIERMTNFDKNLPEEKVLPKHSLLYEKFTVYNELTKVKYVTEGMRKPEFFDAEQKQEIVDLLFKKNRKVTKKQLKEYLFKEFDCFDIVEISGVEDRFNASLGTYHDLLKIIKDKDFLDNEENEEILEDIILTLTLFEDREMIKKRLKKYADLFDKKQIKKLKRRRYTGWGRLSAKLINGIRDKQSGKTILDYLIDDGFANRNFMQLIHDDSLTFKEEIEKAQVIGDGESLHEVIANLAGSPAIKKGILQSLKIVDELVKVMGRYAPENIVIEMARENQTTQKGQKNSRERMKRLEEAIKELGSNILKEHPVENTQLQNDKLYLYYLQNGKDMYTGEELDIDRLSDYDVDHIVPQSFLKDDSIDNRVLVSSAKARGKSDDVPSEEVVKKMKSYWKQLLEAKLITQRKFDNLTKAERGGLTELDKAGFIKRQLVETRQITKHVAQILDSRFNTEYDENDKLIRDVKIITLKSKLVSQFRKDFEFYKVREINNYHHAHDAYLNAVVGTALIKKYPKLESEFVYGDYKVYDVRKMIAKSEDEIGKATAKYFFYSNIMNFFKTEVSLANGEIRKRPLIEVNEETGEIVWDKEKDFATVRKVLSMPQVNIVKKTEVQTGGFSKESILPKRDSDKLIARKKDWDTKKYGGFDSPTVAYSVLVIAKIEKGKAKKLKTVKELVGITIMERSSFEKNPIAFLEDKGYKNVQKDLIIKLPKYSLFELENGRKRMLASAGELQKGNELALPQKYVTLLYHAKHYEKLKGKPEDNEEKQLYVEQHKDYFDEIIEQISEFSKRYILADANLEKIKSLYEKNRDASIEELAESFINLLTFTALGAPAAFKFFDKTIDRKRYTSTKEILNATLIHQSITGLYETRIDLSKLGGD
In words: cell_activity; +++; HEK293T; PAM not stated. The gist of the method:
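Editing activity was scored as the fraction of GFP+ cells on day 4 by flow cytometry. BFP-expressing HEK293T cells (250,000) received by nucleofection 200 ng plasmid for the RT-Cas fusion protein and 200 ng template RNA plasmid designed to convert BFP to GFP.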

B1: BFP-to-GFP template RNA ; BFP reporter protospacer (ssRNA ; dsDNA)
RNA: GCCGAAGCACUGCACGCCGUGUUUUAGAGCUAGAAAUAGCAAGUUAAAAUAAGGCUAGUCCGUUAUCAACUUGAAAAAGUGGCACCGAGUCGGUGCACCCUGACGUACGGCGUGCAGUGCUU
DNA 1: GCCGAAGCACTGCACGCCGT
DNA 2: ACGGCGTGCAGTGCTTCGGC
As for B1, the activity was ≥ 100 % of reference.

The values above are taken from patent US20250092426, “CAS ENDONUCLEASES AND RELATED METHODS” (Flagship Pioneering Innovations VII, LLC, published 2025).
